Laboratory results reported in article PMC10397247.

Assays:
Assay in all cases: two-hybrid library CCmax;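 also: natural log of median RNA to DNA barcode read ratio; higher means stronger binding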
4H3410-AA = biological target: T1, 4H3410-AA; conditions: mean of both orientations
T1 chain: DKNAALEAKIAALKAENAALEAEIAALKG

4H3016-AA = biological target: T2, 4H3016-AA; conditions: mean of both orientations
T2 chain: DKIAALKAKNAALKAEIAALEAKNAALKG

4H3165-AA = biological target: T3, 4H3165-AA; conditions: mean of both orientations
T3 chain: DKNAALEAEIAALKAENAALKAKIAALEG

4H458-AA = biological target: T4, 4H458-AA; conditions: mean of both orientations
T4 chain: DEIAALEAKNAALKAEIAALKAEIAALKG

4H2473-AA = biological target: T5, 4H2473-AA
T5 chain: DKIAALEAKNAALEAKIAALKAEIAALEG

4H745-AA = biological target: T6, 4H745-AA; conditions: mean of both orientations
T6 chain: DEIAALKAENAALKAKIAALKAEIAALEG

4H3753-AA = biological target: T7, 4H3753-AA; conditions: mean of both orientations
T7 chain: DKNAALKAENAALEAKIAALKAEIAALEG

4H3590-AA = biological target: T8, 4H3590-AA; conditions: mean of both orientations
T8 chain: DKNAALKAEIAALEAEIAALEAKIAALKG

4H850-AA = biological target: T9, 4H850-AA; conditions: mean of both orientations
T9 chain: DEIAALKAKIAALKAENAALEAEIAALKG

4H891-AA = biological target: T10, 4H891-AA; conditions: mean of both orientations
T10 chain: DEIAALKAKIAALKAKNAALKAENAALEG

4H2725-AA = biological target: T11, 4H2725-AA; conditions: mean of both orientations
T11 chain: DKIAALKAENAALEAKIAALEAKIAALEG

4H570-AA = biological target: T12, 4H570-AA; conditions: mean of both orientations
T12 chain: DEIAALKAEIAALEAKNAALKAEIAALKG

4H536-AA = biological target: T13, 4H536-AA; conditions: mean of both orientations
T13 chain: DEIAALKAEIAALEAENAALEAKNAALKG

4H2865-AA = biological target: T14, 4H2865-AA; conditions: mean of both orientations
T14 chain: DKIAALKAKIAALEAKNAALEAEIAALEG

4H3395-AA = biological target: T15, 4H3395-AA; conditions: mean of both orientations
T15 chain: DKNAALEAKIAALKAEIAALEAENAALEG

4H3697-AA = biological target: T16, 4H3697-AA; conditions: mean of both orientations
T16 chain: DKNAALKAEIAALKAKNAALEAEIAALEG

4H485-AA = biological target: T17, 4H485-AA; conditions: mean of both orientations
T17 chain: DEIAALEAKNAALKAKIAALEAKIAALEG

4H310-AA = biological target: T18, 4H310-AA; conditions: mean of both orientations
T18 chain: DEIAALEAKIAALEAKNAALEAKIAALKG

4H930-AA = biological target: T19, 4H930-AA; conditions: mean of both orientations
T19 chain: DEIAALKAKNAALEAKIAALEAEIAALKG

4H3120-AA = biological target: T20, 4H3120-AA; conditions: mean of both orientations
T20 chain: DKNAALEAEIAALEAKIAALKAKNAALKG

4H3865-AA = biological target: T21, 4H3865-AA; conditions: mean of both orientations
T21 chain: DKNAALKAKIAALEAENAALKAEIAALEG

4H3381-AA = biological target: T22, 4H3381-AA; conditions: mean of both orientations
T22 chain: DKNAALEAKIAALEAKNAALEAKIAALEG

4H3130-AA = biological target: T23, 4H3130-AA; conditions: mean of both orientations
T23 chain: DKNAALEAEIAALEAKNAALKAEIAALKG

4H2698-AA = biological target: T24, 4H2698-AA; conditions: mean of both orientations
T24 chain: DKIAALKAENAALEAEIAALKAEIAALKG

4H2649-AA = biological target: T25, 4H2649-AA; conditions: mean of both orientations
T25 chain: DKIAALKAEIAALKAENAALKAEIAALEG

4H710-AA = biological target: T26, 4H710-AA; conditions: mean of both orientations
T26 chain: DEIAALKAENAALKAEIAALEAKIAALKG

4H909-AA = biological target: T27, 4H909-AA; conditions: mean of both orientations
T27 chain: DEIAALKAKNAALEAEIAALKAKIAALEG

4H797-AA = biological target: T28, 4H797-AA; conditions: mean of both orientations
T28 chain: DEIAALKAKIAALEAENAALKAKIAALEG

4H94-AA = biological target: T29, 4H94-AA; conditions: mean of both orientations
T29 chain: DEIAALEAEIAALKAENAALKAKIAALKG

4H629-AA = biological target: T30, 4H629-AA; conditions: mean of both orientations
T30 chain: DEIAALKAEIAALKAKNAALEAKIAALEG

4H3009-AA = biological target: T31, 4H3009-AA; conditions: mean of both orientations
T31 chain: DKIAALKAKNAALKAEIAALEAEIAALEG

interaction score (4H3410-AA): -0.429
interaction score (4H3016-AA): 1.52
interaction score (4H3165-AA): -1.43
interaction score (4H458-AA): 1.39
interaction score (4H2473-AA): 1.2
interaction score (4H745-AA): -1.45
interaction score (4H3753-AA): -0.919
interaction score (4H3590-AA): 1.18
interaction score (4H850-AA): -0.625
interaction score (4H891-AA): -1.65
interaction score (4H2725-AA): 0.607
interaction score (4H570-AA): 1.26
interaction score (4H536-AA): -1.67
interaction score (4H2865-AA): -0.67
interaction score (4H3395-AA): -1.43
interaction score (4H3697-AA): -1.54
interaction score (4H485-AA): 0.85
interaction score (4H310-AA): -0.305
interaction score (4H930-AA): -0.124
interaction score (4H3120-AA): -0.0619
interaction score (4H3865-AA): -0.611
interaction score (4H3381-AA): -1.15
interaction score (4H3130-AA): -0.173
interaction score (4H2698-AA): 1.68
interaction score (4H2649-AA): -0.843
interaction score (4H710-AA): 0.747
interaction score (4H909-AA): 0.0276
interaction score (4H797-AA): -1.58
interaction score (4H94-AA): -0.873
interaction score (4H629-AA): -1.34
interaction score (4H3009-AA): 2.07
Binder: DKIAALEAKNAALEAKIAALKAEIAALEG [4H2473-AA]
